Target: T1, FLAG-tagged wild-type (wt) ARRDC1 (Homo sapiens, UniProt Q8N5I2 1-433)
T1 construct: Expressed in 293T cells and immunoprecipitated with anti-FLAG; also called Flag-ARRDC1; arrestin domain-containing protein 1; not shown: FLAG tag
T1 sequence: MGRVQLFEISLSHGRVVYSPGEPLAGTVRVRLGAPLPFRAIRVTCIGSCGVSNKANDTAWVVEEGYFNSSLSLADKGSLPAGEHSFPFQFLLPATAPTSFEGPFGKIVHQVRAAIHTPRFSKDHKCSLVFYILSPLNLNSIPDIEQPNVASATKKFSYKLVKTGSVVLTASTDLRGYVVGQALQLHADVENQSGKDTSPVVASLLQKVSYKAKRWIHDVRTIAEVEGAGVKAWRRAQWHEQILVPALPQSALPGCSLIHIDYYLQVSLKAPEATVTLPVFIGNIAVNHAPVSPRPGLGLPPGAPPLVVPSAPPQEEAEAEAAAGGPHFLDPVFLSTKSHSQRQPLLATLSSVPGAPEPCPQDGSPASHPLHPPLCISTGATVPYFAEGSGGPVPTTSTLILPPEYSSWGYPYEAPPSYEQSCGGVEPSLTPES
Test: co-immunoprecipitation from transfected 293T cells, Western blot (FIG. 1D)

B1: HA-tagged mutant (M95A) TSG101 (other)
chain: MAVSESQLKKMVSKYKYRDLTVRETVNVITLYKDLKPVLDSYVFNDGSSRELMNLTGTIPVPYRGNTYNIPICLWLLDTYPYNPPICFVKPTSSATIKTGKHVDANGKIYLPYLHEWKHPQSDLLGLIQVMIVVFGDEPPVFSRPISASYPPYQATGPPNTSYMPGMPGGISPYPSGYPPNPSGYPGCPYPPGGPYPATTSSQYPSQPPVTTVGPSRDGTISEDTIRASLISAVSDKLRWRMKEEMDRAQAELNALKRTEEDLKKGHQKLEEMVTRLDQEVAEVDKNIELLKKKDEELSSALEKMENQSENNDIDEVIIPTAPLYKQILNLYAEENAIEDTIFYLGEALRRGVIDLDVFLKHVRLLSRKQFQLRALMQKARKTAGLSDLY
notes: Expressed in 293T cells; also called TSG101 M95A; not shown: HA tag
binding result: no binding
